Each substance was assayed against C-terminal vinculin homology domain of α-catenin (α-catenin635–906) (UniProt P35221) (assay: fluorescence polarisation; fluorescence anisotropy of FITC-labelled EspB fragments (fluorescein at the N-terminus) and of EspB with α-catenin635–906; KD by nonlinear curve fitting; buffer and temperature not stated).
Chain of UniProt P35221 (P35221 635-906): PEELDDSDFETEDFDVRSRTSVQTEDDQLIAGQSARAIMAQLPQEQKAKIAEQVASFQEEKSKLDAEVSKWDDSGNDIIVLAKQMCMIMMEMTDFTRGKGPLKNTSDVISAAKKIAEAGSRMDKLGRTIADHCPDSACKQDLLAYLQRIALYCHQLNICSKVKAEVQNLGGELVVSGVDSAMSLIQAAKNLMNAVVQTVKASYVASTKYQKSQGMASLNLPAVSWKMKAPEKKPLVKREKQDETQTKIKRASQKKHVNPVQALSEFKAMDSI

Row | Substance | Kd [µM]
1 | EspB41–60 (peptide) | 23
2 | EspB41–70 (peptide) | 2.5
3 | EspB51–70 (peptide) | 12
4 | EspB from enterohaemorrhagic E. coli (EHEC) (natural protein) | 2.9
